The record followed here is publication PMC3573117, “Identification of the SlmA Active Site Responsible for Blocking Bacterial Cytokinetic Ring Assembly over the Chromosome” (PLoS Genetics, 2013).

The target of this assay is T1, FtsZ(D212N) (UniProt P0A9A6 1-383, D212N).
T1 construct: FtsZ, tubulin-like cell division protein, GTPase-defective derivative D212N; Polymerised with 5 mM GTP in the assay; also called FtsZ(D212N) polymers; FtsZ(D212N) protofilaments
T1 sequence (looked up): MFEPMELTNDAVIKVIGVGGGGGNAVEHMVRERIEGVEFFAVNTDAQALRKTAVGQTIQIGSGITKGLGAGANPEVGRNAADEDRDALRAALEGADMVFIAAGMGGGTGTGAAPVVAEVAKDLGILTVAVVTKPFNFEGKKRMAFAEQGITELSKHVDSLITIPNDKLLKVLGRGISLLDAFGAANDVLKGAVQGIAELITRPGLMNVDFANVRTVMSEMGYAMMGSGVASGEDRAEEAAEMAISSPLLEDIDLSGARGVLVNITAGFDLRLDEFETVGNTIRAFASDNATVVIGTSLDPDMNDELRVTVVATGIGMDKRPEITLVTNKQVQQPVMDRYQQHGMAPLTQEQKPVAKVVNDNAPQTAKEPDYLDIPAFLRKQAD
The assay is described as follows: co-sedimentation; FtsZ(D212N) 5 µM with GTP 5 mM, SBS17 DNA 2.5 µM and SlmA derivative 5 µM, room temperature 15 min; 80,000 rpm, TLA100.2 rotor, 15 min; supernatant and pellet on SDS-PAGE, Coomassie. The note with it: both partners purified.

B1: SlmA(WT) (natural protein, Escherichia coli, UniProt P0C093 1-198, looked up)
chain: MAEKQTAKRNRREEILQSLALMLESSDGSQRITTAKLAASVGVSEAALYRHFPSKTRMFDSLIEFIEDSLITRINLILKDEKDTTARLRLIVLLLLGFGERNPGLTRILTGHALMFEQDRLQGRINQLFERIEAQLRQVLREKRMREGEGYTTDETLLASQILAFCEGMLSRFVRSEFKYRPTDDFDARWPLIAAQLQ
notes: SlmA, nucleoid occlusion factor, TetR-like protein of Escherichia coli; Stood in the assay with SBS17 DNA (SlmA-SBS complex); Serves also as the parent for mutation effects seen with the BACTH fusions; also called wild-type SlmA
As to B1, the binding result is recorded as “binds”.
